# Experimental data: patent EP4039268A1 (IMBA-Institut für Molekulare Biotechnologie GmbH, dated 2022)
# B1: Asgr2 CRD-mouse IgG2a-Fc fusion protein (Fc fusion)
# chain: CCPVNWVEFGGSCYWFSRDGLTWAEADQYCQLENAHLLVINSREEQDFVVKHRSQFHIWIGLTDRDGSWKWVDGTDYRSNYRNWAFTQPDNWQGHEQGGGEDCAEILSDGHWNDNFCQQVNRWVCEKGGGSGGGSGGGS
# B2: Pla2r1_7 CRD-mouse IgG2a-Fc fusion protein (Fc fusion)
# chain: YGNRTYKIIRGNMTWYAAGKSCRMHRAELASIPDAFHQAFLTVLLSRLGHTHWIGLSTTDNGQTFDWSDGTKSPFTYWKDEESAFLGDCAFADTNGRWHSTACESFLQGAICGGGSGGGSGGGS
# B3: Selp CRD-mouse IgG2a-Fc fusion protein (Fc fusion)
# chain: WTYNYSTKAYSWNNSRVFCRRHFTDLVAIQNKNEIAHLNDVIPFFNSYYWIGIRKINNKWTWVGTNKTLTEEAENWADNEPNNKKNNQDCVEIYIKSNSAPGKWNDEPCFKRKRALCGGGSGGGSGGGS
# B4: Pkd1l3 CRD-mouse IgG2a-Fc fusion protein (Fc fusion)
# chain: GGNSCYQLNRLFCDFQEADNYCHAQRGRLAHTWNPKLRGFLKSFLNEETVWWVRGNLTLPGSHPGINQTGGDDVLRNQKPGECPSVVTHSNAVFSRWNLCIEKHHFICQGGGSGGGSGGGS
# B5: Pla2r1_5 CRD-mouse IgG2a-Fc fusion protein (Fc fusion)
# chain: YQNAEYLFHTHPAEWATFEFVCGWLRSDFLTIYSAQEQEFIHSKIKGLTKYGVKWWIGLEEGGARDQIQWSNGSPVIFQNWDKGREERVDSQRKRCVFISSITGLWGTENCSVPLPSICKGGGSGGGSGGGS
# B6: Clec4g CRD-mouse IgG2a-Fc fusion protein (Fc fusion)
# chain: FQGSCYYFSETQATWDTAQSYCGGQGAHLVIVRGLNEQGFLSQHTRGRGYWLGLRAVRHLNKIQGYRWVDGASLNFSHWNSGEPNDSRGHEDCIMMLHSGLWNDAPCTNERDGWICGGGSGGGSGGGS
# B7: Cd22 CRD-mouse IgG2a-Fc fusion protein (Fc fusion)
# chain: SANDWTVDHPQTLFAWEGACIRIPCKYKTPLPKARLDNILLFQNYEFDKATKKFTGTVLYNATKTEKDPESELYLSKQGRVTFLGNRIDNCTLKIHPIRANDSGNLGLRMTAGTERWMEPIHLNVSEGGGSGGGSGGGS
# B8: Clec14a CRD-mouse IgG2a-Fc fusion protein (Fc fusion)
# chain: ASGACYSLHHATFKRRAAEEACSLRGGTLSTVHSGSEFQAVLLLLRAGPGPGGGSKDLLFWVALERSISQCTQEKEPLRGFSWLHPDSEDSEDSPLPWVEEPQRSCTVRKCAALQATRGVEPAGWKEMRCHLRTDGYLCKYGGGSGGGSGGGS
# B9: Clec1b CRD-mouse IgG2a-Fc fusion protein (Fc fusion)
# chain: HGDSCYGFFRRNLTWEESKQYCTEQNATLVKTASQSTLDYIAERITSVRWIGLSRQNSKKDWMWEDSSVLRKNGINLSGNTEENMNCAYLHNGKIHPASCKERHYLICEGGGSGGGSGGGS
# B10: Clec10a CRD-mouse IgG2a-Fc fusion protein (Fc fusion)
# chain: CCPLHWTEHEGSCYWFSESEKSWPEADKYCRLENSHLVVVNSLEEQNFLQNRLANVVSWIGLTDQNGPWRWVDGTDFEKGFKNWAPLQPDNWFGHGLGGGEDCAHITTGGPWNDDVCQRTFRWICEMGGGSGGGSGGGS
# B11: Sftpd CRD-mouse IgG2a-Fc fusion protein (Fc fusion)
# chain: VGDKIFRTADSEKPFEDAQEMCKQAGGQLASPRSATENAAIQQLITAHNKAAFLSMTDVGTEGKFTYPTGEPLVYSNWAPGEPNNNGGAENCVEIFTNGQWNDKACGEQRLVICEFGGGSGGGSGGGS
# B12: Pla2r1_4 CRD-mouse IgG2a-Fc fusion protein (Fc fusion)
# chain: GLASCFKVFHSEKVLMKRSWREAEAFCEEFGAHLASFAHIEEENFVNELLHSKFNWTQERQFWIGFNRRNPLNAGSWAWSDGSPVVSSFLDNAYFEEDAKNCAVYKANKTLLPSNCASKHEWICRGGGSGGGSGGGS
# B13: Clec11a CRD-mouse IgG2a-Fc fusion protein (Fc fusion)
# chain: LGHKCFLLSRDFETQAAAQARCKARGGSLAQPADRQQMDALSRYLRAALAPYNWPVWLGVHDRRSEGLYLFENGQRVSFFAWHRAFSLESGAQPSAATHPLSPDQPNGGVLENCVAQASDDGSWWDHDCERRLYFVCEGGGSGGGSGGGS
# B14: Clec12b CRD-mouse IgG2a-Fc fusion protein (Fc fusion)
# chain: YGNSCYYFSINEEKSWSDSRKDCIDKNATLVKIDSTEERDLLQSQLSLTFSFFWLGLSWNSSGRNWLWEDGSFPPPTLFSDKELASFNGSRDCAYFERGNIYASRCSAEIPWICEGGGSGGGSGGGS
# B15: Sele CRD-mouse IgG2a-Fc fusion protein (Fc fusion)
# chain: WYYNASSELMTYDEASAYCQRDYTHLVAIQNKEEINYLNSNLKHSPSYYWIGIRKVNNVWIWVGTGKPLTEEAQNWAPGEPNNKQRNEDCVEIYIQRTKDSGMWNDERCNKKKLALCYGGGSGGGSGGGS
# B16: Clec2e CRD-mouse IgG2a-Fc fusion protein (Fc fusion)
# chain: FGNKCFYFSEDMGNWTFSQSSCIALDAHLALFDSLEELNFLKRYKGASDHWIGLHRESSEHPWIWTDNTEYNNLVLTRGGGECAYLSNRGIYNSSGDIHKKWICNGGGSGGGSGGGS
# B17: Cd72 CRD-mouse IgG2a-Fc fusion protein (Fc fusion)
# chain: CCPCGWIPYQERCFYISHTLGSLEESQKYCTSLSSKLAAFDEPSKYYYEVSLPSGLEELLDRSKSYWIQMSKKWRQDSDSQSRHCVRIKTYYQKWERTISKCAELHPCICESGGGSGGGSGGGS
# B18: Siglec15 CRD-mouse IgG2a-Fc fusion protein (Fc fusion)
# chain: PAQRWSMQVPAEVNAEAGDAAVLPCTFTHPHRHYDGPLTAIWRSGEPYAGPQVFRCTAAPGSELCQTALSLHGRFRLLGNPRRNDLSLRVERLALADSGRYFCRVEFTGDAHDRYESRHGGGSGGGSGGGS
# B19: Thbd CRD-mouse IgG2a-Fc fusion protein (Fc fusion)
# chain: VEHECFALFQGPATFLDASQACQRLQGHLMTVRSSVAADVISLLLSQSSMDLGPWIGLQLPQGCDDPVHLGPLRGFQWVTGDNHTSYSRWARPNDQTAPLCGPLCVTVSTATEAAPGEPAWEEKPCETETQGFLCEFGGGSGGGSGGGS
# Columns and labels:
# [1] = biological target: T1, human recombinant soluble ACE2 (human, UniProt Q9BYF1 18-740); experiment: ELISA
# T1 construct: also called hrsACE2
# [2] = biological target: T2, monomeric SARS-CoV-2 receptor binding domain (RBD-H6) (SARS-CoV-2, UniProt P0DTC2 319-541); experiment: ELISA screen
# T2 construct: Made in HEK293-6E cells; also called RBD Spike; monomeric RBD
# [3] = biological target: T1, human recombinant soluble ACE2; experiment: ELISA screen
# [4] = biological target: T3, full-length trimeric SARS-CoV-2 Spike protein (Spike-H6) (SARS-CoV-2, N-glycosylated (22 N-glycosylation sites)); experiment: ELISA screen
# T3 construct: also called trimeric Spike; full-length Spike-H6
# [5] = biological target: T3, full-length trimeric SARS-CoV-2 Spike …; experiment: SPR, Spike immobilized, bivalent analyte model, first binding step
# [6] = biological target: T3, full-length trimeric SARS-CoV-2 Spike …; experiment: inhibition of Spike binding to Vero E6 cells, AFM
# [7] = biological target: T3, full-length trimeric SARS-CoV-2 Spike …; experiment: AFM single molecule force spectroscopy, Evans model
# T1 sequence (Q9BYF1 18-740 limits assumed): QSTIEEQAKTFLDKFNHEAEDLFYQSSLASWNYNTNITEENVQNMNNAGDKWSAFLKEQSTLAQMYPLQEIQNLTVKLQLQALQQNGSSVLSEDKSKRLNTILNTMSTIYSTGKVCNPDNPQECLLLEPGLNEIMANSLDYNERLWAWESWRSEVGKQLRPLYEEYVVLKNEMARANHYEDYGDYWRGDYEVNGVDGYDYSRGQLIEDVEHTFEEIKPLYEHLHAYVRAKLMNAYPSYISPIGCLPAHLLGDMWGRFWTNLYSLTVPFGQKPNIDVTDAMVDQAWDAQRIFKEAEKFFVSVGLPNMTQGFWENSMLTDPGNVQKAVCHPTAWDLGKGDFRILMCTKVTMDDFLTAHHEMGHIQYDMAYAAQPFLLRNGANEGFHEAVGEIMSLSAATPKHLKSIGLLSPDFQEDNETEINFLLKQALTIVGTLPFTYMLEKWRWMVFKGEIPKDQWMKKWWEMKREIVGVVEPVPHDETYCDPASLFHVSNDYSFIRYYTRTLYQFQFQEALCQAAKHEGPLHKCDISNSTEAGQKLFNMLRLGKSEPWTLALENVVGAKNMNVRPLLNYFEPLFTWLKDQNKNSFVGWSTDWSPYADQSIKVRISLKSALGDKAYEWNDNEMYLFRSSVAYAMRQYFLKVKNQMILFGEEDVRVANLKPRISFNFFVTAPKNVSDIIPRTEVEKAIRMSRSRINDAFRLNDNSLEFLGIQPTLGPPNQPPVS
binder,measurement,setting,value
B1,binding result,[1],no binding (tested: 10 µg/ml)
same,Mean normalized OD,[2],0.013 OD
same,Mean normalized OD,[3],0.034 OD
same,Mean normalized OD,[4],0.003 OD
B2,binding result,[1],no binding (tested: 10 µg/ml)
same,Mean normalized OD,[2],0 OD
same,Mean normalized OD,[3],0 OD
same,Mean normalized OD,[4],0.002 OD
B3,binding result,[1],no binding (tested: 10 µg/ml)
same,Mean normalized OD,[2],0.007 OD
same,Mean normalized OD,[3],0 OD
same,Mean normalized OD,[4],0.014 OD
B4,binding result,[1],no binding (tested: 10 µg/ml)
same,Mean normalized OD,[2],-0.001 OD
same,Mean normalized OD,[3],0.017 OD
same,Mean normalized OD,[4],0.046 OD
B5,binding result,[1],no binding (tested: 10 µg/ml)
same,Mean normalized OD,[2],0.036 OD
same,Mean normalized OD,[3],0.065 OD
same,Mean normalized OD,[4],0.029 OD
B6,binding result,[1],no binding (tested: 10 µg/ml)
same,Kd,[5],1620 nM
same,koff,[5],0.0997 s⁻¹
same,kon,[5],61700 M⁻¹ s⁻¹
same,Ki,[6],35 to 70 nM
same,koff,[7],0.037 s⁻¹
same,Mean normalized OD,[3],0.04 OD
same,Mean normalized OD,[4],1.68 OD
B7,binding result,[1],no binding (tested: 10 µg/ml)
same,Mean normalized OD,[2],0.004 OD
same,Mean normalized OD,[3],0.006 OD
same,Mean normalized OD,[4],0.027 OD
B8,binding result,[1],no binding (tested: 10 µg/ml)
same,Mean normalized OD,[2],0.004 OD
same,Mean normalized OD,[3],0.029 OD
same,Mean normalized OD,[4],0.012 OD
B9,binding result,[1],no binding (tested: 10 µg/ml)
same,Mean normalized OD,[2],0.03 OD
same,Mean normalized OD,[3],0.04 OD
same,Mean normalized OD,[4],0.024 OD
B10,binding result,[1],no binding (tested: 10 µg/ml)
same,Mean normalized OD,[2],0.064 OD
same,Mean normalized OD,[3],0.125 OD
same,Mean normalized OD,[4],0.069 OD
B11,binding result,[1],no binding (tested: 10 µg/ml)
same,Mean normalized OD,[2],0.002 OD
same,Mean normalized OD,[3],0.016 OD
same,Mean normalized OD,[4],0.031 OD
B12,binding result,[1],no binding (tested: 10 µg/ml)
same,Mean normalized OD,[2],0.053 OD
same,Mean normalized OD,[3],0.088 OD
same,Mean normalized OD,[4],0.063 OD
B13,binding result,[1],no binding (tested: 10 µg/ml)
same,Mean normalized OD,[2],0.011 OD
same,Mean normalized OD,[3],0.17 OD
same,Mean normalized OD,[4],0.032 OD
B14,binding result,[1],no binding (tested: 10 µg/ml)
same,Mean normalized OD,[2],0.001 OD
same,Mean normalized OD,[3],0.007 OD
same,Mean normalized OD,[4],0.002 OD
B15,binding result,[1],no binding (tested: 10 µg/ml)
same,Mean normalized OD,[2],0 OD
same,Mean normalized OD,[3],0 OD
same,Mean normalized OD,[4],0.001 OD
B16,binding result,[1],no binding (tested: 10 µg/ml)
same,Mean normalized OD,[2],0.016 OD
same,Mean normalized OD,[3],0.066 OD
same,Mean normalized OD,[4],0.017 OD
B17,binding result,[1],no binding (tested: 10 µg/ml)
same,Mean normalized OD,[2],0.015 OD
same,Mean normalized OD,[3],0.044 OD
same,Mean normalized OD,[4],0.033 OD
B18,binding result,[1],no binding (tested: 10 µg/ml)
same,Mean normalized OD,[2],0.001 OD
same,Mean normalized OD,[3],0.011 OD
same,Mean normalized OD,[4],0.008 OD
B19,binding result,[1],no binding (tested: 10 µg/ml)
same,Mean normalized OD,[2],0 OD
same,Mean normalized OD,[3],0.001 OD
same,Mean normalized OD,[4],0.003 OD
